Positions of bridges follow the written chain, without caps; N, C: chain ends. No end group written: not given here.

The target in experiment [1] is T1, human CD154 expressed on the cell surface of J558L cells (murine myeloma cell line transfected with human … (human, UniProt P29965 1-261)).
T1 construct: whole, on cells; also called CD40L; CD40 ligand
T1 sequence (looked up): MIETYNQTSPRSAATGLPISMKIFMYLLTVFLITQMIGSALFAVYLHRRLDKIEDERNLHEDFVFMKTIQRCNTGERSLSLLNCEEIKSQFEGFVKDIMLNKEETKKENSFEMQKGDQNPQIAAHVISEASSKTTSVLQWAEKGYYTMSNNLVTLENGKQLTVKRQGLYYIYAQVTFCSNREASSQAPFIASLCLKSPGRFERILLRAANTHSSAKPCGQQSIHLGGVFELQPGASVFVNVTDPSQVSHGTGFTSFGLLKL
The experiment in a line: flow cytometry, -His6 peptide on J558L cells, PE anti-His6 antibody. The protocol:
FIG. 2 represents the binding of the seven peptides obtained from the human CD154-binding clones and tagged with a 6 histidines tail (-His₆) to the J558L CD154⁺ cells. […] The cells were incubated with each of the -His₆-tagged peptides and then with a phycoerythrin-conjugated secondary antibody specific for the-His₆ tail. […] For each experimental condition, 10,000 events were analyzed and the values are the mean and standard deviation of 3 different experiments. All of the peptides are capable of specifically binding to the CD154 on the J558L CD154⁺ cells and are not capable of binding to the control J558 cells.
The peptides were synthesized and conjugated with biotin (-bio) or with a 6-histidine tail (-his₆) so as to enable in vitro and in vivo localization. […] Furthermore, a competition assay between the peptides and an anti-human CD154 fluorescein-conjugated antibody (Serotec) specifically recognizing the active site of CD154 was carried out. The J558L cells were incubated with the his₆-peptides for 30 minutes at room temperature and then with anti-human CD154 fluorescein-conjugated antibody for another 30 minutes at room temperature.
In general terms: A flow cytometer gives signals particle by particle.

For experiment [2], the target named is T1, human CD154 expressed on the cell …. Put plainly: binding to J558L cells. As for the experimental part:
The murine myeloma cells transfected with human CD154, J558L, were incubated with each of the seven anti-CD154 peptides tagged with a 6 histidines tail (-His₆), and then with the anti-CD154 fluorescein-conjugated antibody. The ability of the peptides to compete with the anti-CD154 antibody for the binding to the CD154 molecule expressed on the surface of the J558L cells was evaluated by flow cytometry, as the reduction in the fluorescence intensity compared to the positive control represented by cells incubated with the anti-human CD154 fluorescein-conjugated antibody alone. […] The amino acid sequence of the control peptide differs from that of peptide 4.10 in that an arginine residue is replaced with an alanine residue at amino acid position 5.
The peptides were synthesized and conjugated with biotin (-bio) or with a 6-histidine tail (-his₆) so as to enable in vitro and in vivo localization. […] Furthermore, a competition assay between the peptides and an anti-human CD154 fluorescein-conjugated antibody (Serotec) specifically recognizing the active site of CD154 was carried out.

For experiment [3] the target is unchanged. The experiment in a line: binding to CD154+ J558L cells.

B1: peptide 4.11 tagged with a 6 histidines tail (-His6) (peptide)
peptide: CLSAVHNMCHHHHHH
modifications: disulfide 1-9
notes: Synthetic peptide; also called -his6 peptide
With B1, the binding result in experiment [1] was “binds”.

B2: peptide 4.8 tagged with a 6 histidines tail (-His6) (peptide)
peptide: CKAASANICHHHHHH
modifications: disulfide 1-9
notes: as for B1
As for B2, the binding result in experiment [1] is on record as “binds”.

B3: peptide 4.10 with the residue at position 4 replaced with alanine (peptide)
peptide: CLPARHMAC
notes: also called mutated peptide (position 4)
As for B3, the binding result in experiment [2] was “no binding”.
In the case of CLPSRHMAC [modified peptide 4.102], in experiment [3], the binding result was “no binding”.

B4: control peptide 4.10-ala (peptide)
peptide: CLPTAHMAC
notes: also called peptide 4.10 with alanine at position 5
Take B4: in experiment [2], the binding result is recorded as “no binding”.

B5: peptide 4.7 = 4.12 tagged with a 6 histidines tail (-His6) (peptide)
peptide: CTPGKPHSCHHHHHH
modifications: disulfide 1-9
notes: as for B1
On to B5, for which the binding result in experiment [1] is recorded as “binds”.

B6: peptide 4.2 = 4.3 tagged with a 6 histidines tail (-His6) (peptide)
peptide: CPSGHTKACHHHHHH
modifications: disulfide 1-9
notes: as for B1
B6: the binding result in experiment [1] was “binds”.

B7: peptide 4.6 tagged with a 6 histidines tail (-His6) (peptide)
peptide: CLGTQNKECHHHHHH
modifications: disulfide 1-9
notes: as for B1
Regarding B7, the binding result in experiment [1] is reported as “binds”.
As for CIPTRHMAC [modified peptide 4.101], the binding result in experiment [3] is given as “no binding”.
Still for that read-out and setting: for CIPTRHMVC [modified peptide 4.103] the value was “no binding”.

B8: peptide 4.10 tagged with a 6 histidines tail (-His6) (peptide)
peptide: CLPTRHMACHHHHHH
modifications: disulfide 1-9
notes: as for B1
With B8, the binding result in experiment [1] is listed as “binds”.

B9: peptide 4.10 with the residue at position 6 replaced with alanine (peptide)
peptide: CLPTRAMAC
notes: also called mutated peptide (position 6)
B9: in experiment [2], the binding result is on record as “no binding”.
As for CLPTRWMAC [modified peptide 4.104], the binding result in experiment [3] is recorded as “no binding”.

B10: peptide 4.4 tagged with a 6 histidines tail (-His6) (peptide)
peptide: CGTHSSRICHHHHHH
modifications: disulfide 1-9
notes: as for B1
B10: the binding result in experiment [1] was “binds”.

The record behind these values is patent US20110144038A1 (FRESENIUS MEDICAL CARE DEUTSCHLAND G M B H, published 2011).
